Results published in patent publication US12576138B2, “Compounds and methods for the immobilization of myostatin-inhibitors on the extracellular matrix by transglutaminase” (JULIUS-MAXIMILIANS-UNIVERSITÄT WÜRZBURG, priority 2018, dated 2026).

Tests used:
fibronectin = biological target: T1, fibronectin (Mus musculus, UniProt P11276); experiment: FXIIIa-mediated immobilization of MI-D chain on decellularized cell-derived ECM; format: biochemical
T1 construct: The ECM was produced by NIH3T3 fibroblasts and on day 6 decellularized; endogenous in cells; host or cells: NIH3T3 fibroblasts (decellularized ECM)
T1 sequence (P11276 33-2477): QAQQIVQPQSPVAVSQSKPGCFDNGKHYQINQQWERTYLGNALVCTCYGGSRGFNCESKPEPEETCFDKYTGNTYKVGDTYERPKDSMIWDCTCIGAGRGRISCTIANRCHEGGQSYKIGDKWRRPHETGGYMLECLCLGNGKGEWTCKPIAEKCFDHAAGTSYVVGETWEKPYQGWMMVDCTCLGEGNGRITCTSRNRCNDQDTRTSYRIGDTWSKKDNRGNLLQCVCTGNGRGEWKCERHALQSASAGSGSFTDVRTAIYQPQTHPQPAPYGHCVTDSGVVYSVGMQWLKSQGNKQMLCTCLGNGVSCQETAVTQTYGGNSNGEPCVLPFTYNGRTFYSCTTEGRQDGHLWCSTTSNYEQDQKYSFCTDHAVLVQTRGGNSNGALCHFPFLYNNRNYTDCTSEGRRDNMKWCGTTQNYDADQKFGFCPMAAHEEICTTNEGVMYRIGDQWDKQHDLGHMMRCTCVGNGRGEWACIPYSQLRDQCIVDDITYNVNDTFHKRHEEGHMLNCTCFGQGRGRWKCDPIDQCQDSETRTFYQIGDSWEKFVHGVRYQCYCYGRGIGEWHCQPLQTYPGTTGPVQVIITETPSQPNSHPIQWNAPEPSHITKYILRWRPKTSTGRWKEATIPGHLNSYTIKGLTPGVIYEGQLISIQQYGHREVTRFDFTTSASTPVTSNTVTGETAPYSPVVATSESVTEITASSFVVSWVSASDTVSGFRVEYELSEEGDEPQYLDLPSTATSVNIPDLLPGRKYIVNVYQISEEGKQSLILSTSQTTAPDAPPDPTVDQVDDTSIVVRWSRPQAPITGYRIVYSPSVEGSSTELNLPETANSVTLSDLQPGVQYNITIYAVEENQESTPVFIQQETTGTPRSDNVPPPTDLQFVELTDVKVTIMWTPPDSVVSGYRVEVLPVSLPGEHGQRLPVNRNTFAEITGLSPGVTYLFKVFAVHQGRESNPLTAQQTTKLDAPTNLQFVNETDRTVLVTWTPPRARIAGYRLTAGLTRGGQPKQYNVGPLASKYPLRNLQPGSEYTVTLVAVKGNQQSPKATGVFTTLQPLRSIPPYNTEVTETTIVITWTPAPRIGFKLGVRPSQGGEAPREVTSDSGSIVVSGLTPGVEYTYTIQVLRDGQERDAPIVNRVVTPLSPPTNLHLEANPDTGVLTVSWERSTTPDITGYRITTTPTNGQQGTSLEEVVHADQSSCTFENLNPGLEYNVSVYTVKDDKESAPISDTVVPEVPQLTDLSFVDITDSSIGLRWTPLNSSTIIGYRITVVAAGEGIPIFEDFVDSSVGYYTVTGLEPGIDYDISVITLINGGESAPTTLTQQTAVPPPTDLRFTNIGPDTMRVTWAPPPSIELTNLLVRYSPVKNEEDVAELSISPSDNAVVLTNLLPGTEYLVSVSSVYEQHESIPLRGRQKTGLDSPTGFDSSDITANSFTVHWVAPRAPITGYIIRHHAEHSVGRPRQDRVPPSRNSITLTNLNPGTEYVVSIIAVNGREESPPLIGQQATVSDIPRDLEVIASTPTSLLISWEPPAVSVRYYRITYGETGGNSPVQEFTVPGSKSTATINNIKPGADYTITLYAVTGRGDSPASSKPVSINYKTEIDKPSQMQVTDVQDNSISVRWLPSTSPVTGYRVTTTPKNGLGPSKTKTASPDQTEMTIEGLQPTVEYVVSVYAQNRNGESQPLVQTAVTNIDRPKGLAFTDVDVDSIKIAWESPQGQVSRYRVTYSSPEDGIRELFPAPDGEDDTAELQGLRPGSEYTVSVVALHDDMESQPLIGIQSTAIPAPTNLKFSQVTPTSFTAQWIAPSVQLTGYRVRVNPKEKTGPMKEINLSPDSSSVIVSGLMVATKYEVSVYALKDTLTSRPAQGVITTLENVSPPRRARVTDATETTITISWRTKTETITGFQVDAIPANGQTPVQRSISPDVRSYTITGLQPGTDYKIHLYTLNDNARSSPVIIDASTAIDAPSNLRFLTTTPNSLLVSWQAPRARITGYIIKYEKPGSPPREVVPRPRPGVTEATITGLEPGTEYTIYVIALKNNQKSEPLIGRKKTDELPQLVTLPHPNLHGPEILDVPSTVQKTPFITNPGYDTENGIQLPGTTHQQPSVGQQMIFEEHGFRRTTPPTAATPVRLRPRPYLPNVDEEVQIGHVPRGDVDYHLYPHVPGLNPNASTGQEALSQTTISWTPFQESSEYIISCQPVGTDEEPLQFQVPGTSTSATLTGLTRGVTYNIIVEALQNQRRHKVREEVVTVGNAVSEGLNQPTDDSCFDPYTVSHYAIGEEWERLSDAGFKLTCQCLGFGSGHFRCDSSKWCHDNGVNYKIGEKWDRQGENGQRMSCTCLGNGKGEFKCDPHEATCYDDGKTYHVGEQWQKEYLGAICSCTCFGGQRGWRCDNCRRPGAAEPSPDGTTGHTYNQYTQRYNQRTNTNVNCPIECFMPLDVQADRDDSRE
Excerpt: As proof of concept, the MI with TG tag (“MI-D chain”) was immobilized onto cell derived, isolated extracellular matrix (ECM). The ECM was produced by NIH3T3 fibroblasts and on day 6 decellularized and washed to remove cell debris and adsorbed proteins.
(§1) MI-D chains were immobilized on ECM with high efficacy (FIG. 4A) and the co-localization with fibronectin confirmed using confocal laser scanning microscopy (FIG. 4B). Bioactivity of immobilized MI was confirmed by capturing myostatin using ELISA and consequently the restoration of mouse myoblast cells to differentiate in presence of myostatin (FIG. 4C, D).
(§2) FIG. 4: Immobilization of the MI-D chain on decellularized ECM. (A) Coupling efficacy in presence and absence of TG. (B) Confocal Laser Scanning Microscopy images of MI labeled with Atto594-maleimide on ECM in presence (panels A) and absence (panels B) of FXIIIa. […] (C) Amount of free myostatin after exposure to ECM with immobilized MI under different conditions measured by ELISA. (D) Bioactivity of MI immobilized on ECM determined by differentiation of myoblasts in presence of myostatin-containing medium and MI bound on ECM in presence or absence of TG.

myostatin [1] = biological target: T2, myostatin (Homo sapiens, UniProt O14793); experiment: Capture of myostatin by ECM-immobilized MI, measured by ELISA; format: binding
T2 sequence (O14793 267-375): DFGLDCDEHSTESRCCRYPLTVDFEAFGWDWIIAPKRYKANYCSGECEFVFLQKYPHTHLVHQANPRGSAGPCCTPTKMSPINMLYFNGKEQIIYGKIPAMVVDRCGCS
Excerpt: as §1, §2

mouse myoblast cells = experiment: Differentiation of myoblasts in presence of myostatin and MI bound on ECM; format: cell-based; settings: MI immobilized on ECM
Excerpt: as §1, §2

[2] = biological target: glutamine substrate derived from α-2 plasmin inhibitor (Homo sapiens, UniProt P08697); experiment: Transglutaminase coupling of the isolated IGF-I D chain to a glutamine substrate; format: biochemical
Protocol: Starting off by examination of the specificity and efficacy of the IGF-I D chain, the isolated sequence (PLKPAKSA) was coupled to a glutamine substrate derived from α-2 plasmin inhibitor, achieving >90% conversion within less than 10 minutes.

myostatin [3] = biological target: T2, myostatin; experiment: Bioactivity of released MI: myoblast proliferation in presence of myostatin; format: cell-based; settings: after release from ECM triggered by MMPs
Excerpt: If a flaring inflammation in the wounded tissue occurs, accompanied by invasion of macrophages and release of MMPs, the inter-positioned PCL is cleaved, releasing the MI and instantly inhibiting the flaring inflammation and preventing apoptosis of surrounding cartilage and muscle cells.
FIG. 5: (A) Release kinetics of MI modified with a PCL—responding to elevated MMP levels—and the D chain for immobilization on ECM (“MI1”) in comparison to MI modified with the D chain at the C-terminus for direct immobilization on ECM (“MI2”). The MI was labelled with a fluorescent dye before immobilization on the ECM and the release of MI exposed to MMP-1, -8, -9 and -13 for different periods of time was analyzed by HPLC with fluorescence detection. (B) Bioactivity of released MI determined by myoblast proliferation in presence of myostatin and MI after release from ECM triggered by MMPs.

MI-D chain: myostatin inhibitor with the IGF-I D chain attached at the C-terminus for direct immobilization on ECM (VATQGQCTRWPWMCPPQGWGPLKPAKSA)
co-localization with fibronectin (fibronectin; confocal laser scanning microscopy): confirmed
efficacy of immobilization on ECM (fibronectin; decellularized ECM from NIH3T3 fibroblasts, FXIIIa): high efficacy
bioactivity of immobilized MI by capturing myostatin (myostatin [1]; ELISA, MI immobilized on ECM): confirmed
capacity to bind and inhibit myostatin after immobilization on N-terminus of fibronectin (myostatin [1]; immobilized on ECM): without impairment
differentiation of mouse myoblast cells in presence of myostatin (mouse myoblast cells): restoration

PLKPAKSA (listed as Homo sapiens) [IGF-I D chain]
time to reach >90% conversion ([2]; coupling to glutamine substrate derived from α-2 plasmin inhibitor): less than 10 minutes
conversion (coupling to glutamine substrate) ([2]; within less than 10 minutes): > 90%

VATQGQCTRWPWMCPPQGWG (listed as Homo sapiens) [MI, in b165 the MI released from ECM by MMPs]
bioactivity of released MI in terms of myostatin inhibition (myostatin [3]): bioactive
